{
  "source": "IntAct's records for PubMed 26365382",
  "parents": {"B1": {"name": "Zinc finger protein RFP (Homo sapiens), P14373 (parent)", "chain": "MASGSVAECLQQETTCPVCLQYFAEPMMLDCGHNICCACLARCWGTAETNVSCPQCRETFPQRHMRPNRHLANVTQLVKQLRTERPSGPGGEMGVCEKHREPLKLYCEEDQMPICVVCDRSREHRGHSVLPLEEAVEGFKEQIQNQLDHLKRVKDLKKRRRAQGEQARAELLSLTQMEREKIVWEFEQLYHSLKEHEYRLLARLEELDLAIYNSINGAITQFSCNISHLSSLIAQLEEKQQQPTRELLQDIGDTLSRAERIRIPEPWITPPDLQEKIHIFAQKCLFLTESLKQFTEKMQSDMEKIQELREAQLYSVDVTLDPDTAYPSLILSDNLRQVRYSYLQQDLPDNPERFNLFPCVLGSPCFIAGRHYWEVEVGDKAKWTIGVCEDSVCRKGGVTSAPQNGFWAVSLWYGKEYWALTSPMTALPLRTPLQRVGIFLDYDAGEVSFYNVTERCHTFTFSHATFCGPVRPYFSLSYSGGKSAAPLIICPMSGIDGFSGHVGNHGHSMETSP"}},
  "data": [
    {"variants_of": "B1", "details": "with magl2_human MAGEL2, Q9UJ55", "values": [
      {"variant": "K304R;K380R;K382R", "effect of a mutation on the interaction": "with no effect"}
    ]}
  ]
}
